# Data: US20220242958A1, “BISPECIFIC NANOBODIES” (Ablynx N.V., priority 2013, published 2022)
# “Also recorded” adds a separate entry of the source.
# T1: recombinant IL-3Rα ectodomain (Homo sapiens, UniProt P26951)
# T1 construct: Immobilisation of recombinant IL-3Rα ectodomain (Sino Biologicals) was done until 761 RU; purchased Sino Biologicals
# T1 sequence (P26951 19-305 limits assumed): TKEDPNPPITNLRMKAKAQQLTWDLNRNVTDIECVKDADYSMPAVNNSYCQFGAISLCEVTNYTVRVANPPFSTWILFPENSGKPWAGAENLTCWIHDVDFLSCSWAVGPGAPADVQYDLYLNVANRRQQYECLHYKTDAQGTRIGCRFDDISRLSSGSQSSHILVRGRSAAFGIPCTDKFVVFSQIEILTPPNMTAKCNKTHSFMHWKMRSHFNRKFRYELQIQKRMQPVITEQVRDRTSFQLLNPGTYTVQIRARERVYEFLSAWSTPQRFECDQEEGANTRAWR
# B1: CD123#2: anti-IL-3Ra (CD123) Nanobody, SEQ ID NO: 14 (protein)
# VHH: EVQLVESGGGSVQAGGSLRLSCTTSGRALNMYVMGWFRQAPGNEREFVAATSSSGGSTSYPDSVKGRFTISRDNAKNTVYLQMNSLKPEDTAAYRCAASPYVSTPTMNILEEYRYWGLGTQVTVSS
# B2: IL12Rb1#30: IL-12Rβ1 specific ligand competing Nanobody (protein)
# VHH: EVQLVESGGGLVQTGGSLRLSCAASGRTPRLVAMGWFRQTPGKEREFVGEIILSKGFTYYADSVKGRFTISRVNAKNTITMYLQMNSLKSEDTAVYYCAGRQNWSGSPARTNEYEYWGQGTLVTVSS
# B3: CD4#8: anti-CD4 Nanobody, SEQ ID NO: 25 (protein)
# VHH: EVQLVESGGGSVQPGGSLTLSCGTSGRTFNVMGWFRQAPGKEREFVAAVRWSSTGIYYTQYADSVKSRFTISRDNAKNTVYLEMNSLKPEDTAVYYCAADTYNSNPARWDGYDFRGQGTQVTVSS
# B4: CD123#1: anti-IL-3Ra (CD123) Nanobody, SEQ ID NO: 15 (protein)
# VHH: EVQLVESGGGLVQAGGSLRLSCAASGSIFSGNVMGWYRRQAPGKEREWVAAIASGGSIYYRDSVKGRFTISRDNAKNTVYLQMNSLKPEDTAVYYCNSHPPTLPYWGLGTQVTVSS
# B5: 238D4: full blocking control CXCR4 Nanobody (protein)
# VHH: EVQLMESGGGLVQAGGSLRLSCAASGRTFNNYAMGWFRRAPGKEREFVAAITRSGVRSGVSAIYGDSVKDRFTISRDNAKNTLYLQMNSLKPEDTAVYTCAASAIGSGALRRFEYDYSGQGTQVTVSS
# How the values were obtained:
# [1] = target: T1, recombinant IL-3Rα ectodomain; assay: SPR (ProteOn) on recombinant IL-3Rα ectodomain; assay type: binding
# Description: The affinities of CD123 specific Nanobodies were further investigated via Surface Plasmon Resonance (SPR) at ProteOn. Immobilisation of recombinant IL-3Rα ectodomain (Sino Biologicals) was done until 761 RU. The Nanobodies were applied at a highest concentration of 1 μM, followed by a three-fold titration, covering 5 further concentrations ranging from 1 μM to 4.1 nM. These were then applied in a single injection cycle, utilising the ProteOn's specific one-shot kinetics approach for kinetic analysis. Evaluation of the association/dissociation data was performed by fitting a 1:1 interaction model (Langmuir binding model). […] For CD123 Nanobodies the obtained KD values correlated well with the apparent affinities retrieved by cell binding EC50 values (see Table 3).
# HEK293T-wt cells = assay: FACS binding to non-transfected HEK293T-wt cells (specificity); parameters: species or system human; settings: data not shown
# Description: Nanobody binding to membrane associated human IL-3Rα was analysed on HEK293T cells transfected with pcDNA3.1-IL3Rα (NM_002183.2) and non-transfected cells. Surface expression was confirmed by FACS using IL-3Rα specific antibodies (R&D MAB301 and BD Pharminogen 554528), followed by goat anti-mouse PE (Jackson Immuno Research 115-115-164). Briefly, serial dilutions of Nanobodies were allowed to associate for 30 minutes at 4° C. in FACS buffer (PBS 1×+10% FBS+0.05% azide). Following this, cells were washed by centrifugation and probed with 6.7 nM anti-FLAG for 30 minutes at 4° C., to detect bound Nanobody. Detection was done with […] for 30 minutes at 4° C. Cells were washed and incubated with TOPRO3 to stain for dead cells, which are then removed during the gating procedure. The cells were then analysed via a BD FACSArray. The results are depicted in FIG. 1.2.
# [2] = target: T2, human IL12Rβ1 extracellular domain Fc-fusion (Homo sapiens, UniProt P42701); assay: SPR (Biacore T100) on IL12Rβ1-Fc; assay type: binding
# T2 construct: Fc-fusions of human IL12Rβ1, IL12Rβ2 and IL-23R extracellular domains; purchased R&D Systems #839-B1
# Description: The precise binding affinities of the purified Nanobodies were determined in a multi-cycle kinetic analysis using Surface Plasmon Resonance analysis (Biacore T100) on Fc-fusions of human IL12Rβ1, IL12Rβ2 and IL-23R extracellular domains (R&D Systems, #839-B1, #1959-B2, #1400-IR). Sensorchips CM5 were immobilized with anti-hIgG antibody (GE Healthcare, BR-1008-39), after which receptors were captured at 5 μg/ml protein and contact time of 120 seconds. Running buffer used was HBS-EP+ (GE Healthcare, BR-1006-69) at 25° C., with a flow-rate of […]. For immobilization by amine coupling, EDC/NHS was used for activation and ethanolamine HCl for deactivation (Biacore, amine coupling kit). Nanobodies were evaluated at a concentration range between 1.37 nM and 3 μM. Nanobodies were allowed to associate for 2 min and to dissociate for 15 min at a flow rate of […]. In between injections, the surfaces were regenerated with a 3 min pulse of 3M MgCl2 and 2 min stabilization period. Evaluation of the association/dissociation data was performed by fitting a 1:1 interaction model (Langmuir binding model) by Biacore TWO software v2.0.3.
# cytotoxic CD8+ T cells = assay: Binding to isolated CD8+ T cells (FACS); parameters: species or system human; settings: Nanobodies at 250 nM
# Description: The pool of activated T cells comprises both CD4+ T cells and CD8+ T cells. To confirm the specificity of the anti-CD4 Nanobody and to exclude binding to CD4-negative cells, binding was assessed to cytotoxic CD8+ T cells isolated from human PBMCs using the CD8+ T Cell Isolation Kit (Miltenyi Biotech, 130-096-495), resulting in 94% purity of CD8+ cells. Binding specificity experiments were carried out using Nanobodies at 250 nM. […] Similar data were obtained for the IL12Rβ2 and IL23R Nanobodies.
# [3] = test system: CD8+/CD4− gated and CD4+ gated T cells; assay: Multi-colour FACS on TH1 activated T cells gated for CD8 or CD4; assay type: binding, human; settings: donor D838; anti-flag-APC detection
# Description: To elucidate if CD4-IL12R bispecific polypeptides preferentially bind to the CD4+/IL12R+ TH1 cell subset within the pool of T cells, Nanobody binding was analysed to a pool of activated T cells gated for either CD8 (detected by Anti-hu CD8 PE-Cy7 conjugated monoclonal antibody (BD 557746) or CD4 (detected by Anti-hu CD4 alexa Fluor 488-conjugated polyclonal antibody (R&D FAB8165G) in a multi-colour FACS experiment. Nanobody binding to the CD8+/CD4− gated cells and to CD4+ gated cells was determined using anti-flag-APC (Prozyme PJ255) detection. In this experiment TH1 activated T cells from the same donor (D838) as shown in FIG. 3.6 were used.
# [4] = target: T3, recombinant human CD4 / HIV1 gp120 interaction (Homo sapiens, UniProt P01730); assay: gp120 - CD4 competition ELISA; assay type: binding; settings: 500 nM Nanobody
# T3 construct: purchased Invitrogen
# Description: Therefore a panel of CD4 Nanobodies was analysed for the capacity to block the interaction with the viral gp120 protein. Briefly, CD4 Nanobodies were analysed for the ability to compete with gp120 protein binding to recombinant CD4 in ELISA. Briefly, plates were coated with 20 ug/mL sheep anti-gp120 antibodies. lug/mL of HIV1 gp120 protein was captured for 1 hr at room temperature. Biotinylated recombinant human CD4 (Invitrogen) at 0.5 μg/mL was pre-incubated with 500 nM anti-CD4 Nanobodies, or control antibodies mouse anti-CD4 mAb B-A1 and F5 (Diaclone) and rabbit anti-CD4 pAb (ImmunoDiagnostic Inc) for 1hr, after which mixture was transferred to the coated plates and incubated for 1 hr. Detection of bound CD4 was done with Extravidin-peroxidase conjugate. […] Characteristics of Nanobody CD4 are found in Table 2.1.
# [5] = target: T4, CXCR4 on Caki-CXCR4 cells (Homo sapiens, UniProt P61073); assay: Biotinylated SDF-1 displacement on Caki-CXCR4 cells (flow cytometry); assay type: binding; settings: 30 nM biotinylated SDF-1; read-out: Ligand competition Biotin-SDF-1 IC50
# T4 construct: expressed in transfected cells; host or cells: Caki-CXCR4
# T4 sequence (P61073 whole entry): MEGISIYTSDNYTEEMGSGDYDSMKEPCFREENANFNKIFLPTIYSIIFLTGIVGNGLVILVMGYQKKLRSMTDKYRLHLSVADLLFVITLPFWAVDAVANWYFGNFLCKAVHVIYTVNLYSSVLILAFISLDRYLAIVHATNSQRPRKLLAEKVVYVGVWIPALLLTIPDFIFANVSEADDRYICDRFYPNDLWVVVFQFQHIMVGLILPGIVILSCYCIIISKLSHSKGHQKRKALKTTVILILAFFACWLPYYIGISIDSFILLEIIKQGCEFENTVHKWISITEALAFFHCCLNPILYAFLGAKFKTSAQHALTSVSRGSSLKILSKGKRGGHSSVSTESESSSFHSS
# Description: CXCR4 Nanobodies were analysed for their ability to compete with the ligand CXCL12 (or SDF-1a) for receptor binding, by displacement of biotinylated SDF-1 on Caki-CXCR4 cells in flow cytometry. To this end serial dilutions of Nanobodies were incubated with 30 nM of biotinylated SDF-1 (R&D Systems Fluorokine kit) on cells, after which ligand binding was visualised using extravidin-PE. The biotin-SDF-1 competitor concentration used in this assay was below the EC50 value obtained in dose-titration, where IC50 values should reflect the Ki.
# [6] = target: T5, CXCR4 (membrane extracts of Hek-CXCR4 cells) (Homo sapiens, UniProt P61073); assay: [125I]-CXCL12 radio-ligand displacement on membrane extracts of Hek-CXCR4 cells; assay type: binding
# T5 construct: expressed in transfected cells; host or cells: Hek293 (membrane extracts)
# T5 sequence (P61073 whole entry): as above
# Description: CXCR4 Nanobodies were analysed in radio-ligand displacement assay on membrane extracts of Hek-CXCR4 cells. The advantage of using the radiolabelled ligand is the increased sensitivity, and the low competitor concentration ensures the determination of Ki values (i.e. the real affinity constant) instead of measuring the IC50 value. This makes it possible to accurately determine the potencies of low affine Nanobodies, even though they may not reach full displacement.
# Non-specific binding was determined in presence of 100 nM cold SDF-1. As controls full blocking CXCR4 Nanobodies 238D4 and 281A6 were included. The assay was performed three times, and average percentages of SDF-1 inhibition were calculated.
# [7] = target: T6, CXCR4 on Jurkat E6-1 cells (Homo sapiens, UniProt P61073); assay: CXCL12/SDF-1a induced chemotaxis of Jurkat E6-1 cells; assay type: cell-based; settings: monovalent CXCR4 Nanobodies, Table 4; read-out: Chemotaxis Jurkat IC50
# T6 construct: endogenous in cells; host or cells: Jurkat E6-1
# T6 sequence (P61073 whole entry): as above
# Description: To verify if bispecific CXCR4-IL3Ra polypeptides show increased affinity and potency on cells expressing both receptors, a CXCR4-dependent functional assay was carried out. To this end SDF-1a dependent chemotaxis on Jurkat E6-1 (CXCR4+/IL3Ra−), and MOLM-13 cells (CXCR4+/IL3Ra+) was performed for direct comparison of cells expressing both or only one receptor. Since the functional blockade is only mediated via CXCR4, avidity by the simultaneous binding of the anti-IL3Ra Nanobody® is expected to translate into increased potency in inhibition of chemotaxis.
# Bispecific polypeptides were analyzed for inhibition of CXCL12-induced chemotaxis on cells endogenously expressing CXCR4. As chemoattractant a concentration of 750 pM SDF-1a was used on 100,000 cells/well for the Jurkat cell line, and 500,000 cells/well for the MOLM-13 cell line. On each plate the corresponding monovalent CXCR4 Nanobody was included as reference, allowing to calculate the fold increase of the bispecific within each plate. As additional control 1:1 mixtures of monovalent Nanobodies were included. In Table 9 the respective IC50 values are shown (average of n=3 experiments).
# To verify if bispecific CXCR4-IL-3Ra polypeptides show increased affinity and potency on cells expressing both receptors, a CXCR4-dependent functional assay was done. Since MOLM-13 cells express CD4 in conjunction with CXCR4 and CD123, the same experimental set-up was used as described for the CXCR4-CD123 bispecific Nanobodies (see: Example 1.5.5).
# Dose-dependent inhibition of CXCL12-induced chemotaxis by the panel of bispecific CD4-CXCR4 Nanobodies was determined on Jurkat (CXCR4+/CD4 low), and Molm-13 cells (CXCR4++/CD4++). As reference anti-CXCR4 antibody 12G5 was included on each plate. […] Remarkably, bispecific constructs in the inverse orientation were able to block CXCR4 function, despite their reduced affinity for CXCR4 due to the unfavourable position, although the blockade was partial. The much larger potency increases observed with Nanobodies targeting the CD4 and CXCR4 combination is most likely related to the higher relative expression levels of CD4 compared to CD123 on the Molm-13 cells.
# [8] = target: T4, CXCR4 on Caki-CXCR4 cells; assay: Binding of CXCR4 Nanobodies to Caki-CXCR4 cells
Molecule,SPR - IL-3Ra ka [1],SPR - IL-3Ra kd [1],binding to HEK293T-wt cells (HEK293T-wt cells),binding to isolated CD8+ T cells (cytotoxic CD8+ T cells),binding to CD4+ gated and CD8+ gated T cells [3],other results
B1,84000 M⁻¹ s⁻¹,0.0014 s⁻¹,lack of binding,–,–,–
B2,–,–,–,did bind,low fluorescence signals to both CD4+ and CD8+ cells,"Binding kinetics (SPR) ka (1/Ms), IL12Rβ1 [2]: 450000 M⁻¹ s⁻¹; Binding kinetics (SPR) kd (1/s), IL12Rβ1 [2]: 0.0015 s⁻¹"
B3,–,–,–,No binding,strong binding to the CD4+ gated population; also recorded: only a low signal was observed to the CD8+ population,inhibition of gp120 - CD4 interaction [4]: inhibit the interaction with gp120
B4,1e+06 M⁻¹ s⁻¹,0.00081 s⁻¹,lack of binding,–,–,–
B5,–,–,–,–,–,"IC50 [5]: 2.1 nM; efficacy of SDF-1 displacement ([6]; radio-ligand displacement): full efficacy; Ki ([6]; read-out: Ligand competition [125I]-SDF-1 Ki, 75 pM [125I]-CXCL12): 5.4 nM; IC50 [7]: 7.6 nM; EC50 [8]: 3.4 nM"
